# Assay results as given in patent EP4700044A1, “PROTEIN ANALOGUE AND USE THEREOF” (Shanghai Duomirui Biotechnology., Ltd., priority 2023, dated 2024).
# B1: Compound 5.3: FGF21D46C mutant (SEQ NO: 7) modified by the albumin-binding agent of Example 2.1 (conjugate)
# chain: HPIPDSSPLLQFGGQVRQRYLYTDDAQQTEAHLEIREDGTVGGAACQSPESLLQLKALKPGVIQILGVKTSRFLCQRPDGALYGSLHFDPEACSFRERLLEDGYNVYQSEAHGLPLHLPGNKSPHRDPAPRGPARFLPLPGLPPAPPEPPGILAPQPPDVGSSDPLSMVGGSQGRSPSYES
# modifications: albumin-binding agent of Example 2.1
# B2: Compound 10.4: PAS-FGF21 dimer: PAS100FGF21 (SEQ ID NO: 16) modified by the side chain of Example 8.3 (conjugate)
# chain: SPCASPAAPAPASPAAPAPSAPAAASAAAPAAASAAASAPSAASAAASPAAPSAPPAAASPAAPSAPPAAASPAAPAPASPAASAPSAPAAASPAAPAPASHPIPDSSPLLQFGGQVRQRYLYTDDAQQTEAHLEIREDGTVGGAADQSPESLLQLKALKPGVIQILGVKTSRFLCQRPDGALYGSLHFDPEACSFRERLLEDGYNVYQSEAHGLPLHLPGNKSPHRDPAPRGPARFLPLPGLPPAPPEPPGILAPQPPDVGSSDPLSMVGGSQGRSPSYES
# modifications: dimer; side chain of Example 8.3
# B3: Compound 10.5: PAS-FGF21 dimer: PAS200FGF21 (SEQ ID NO: 17) modified by the side chain of Example 8.3 (conjugate)
# chain: SPCASPAAPAPASPAAPAPSAPAAASAAAPAAASAAASAPSAASAAASPAAPSAPPAAASPAAPSAPPAAASPAAPAPASPAASAPSAPAAASPAAPAPASPAAPAPSAPAAASAAAPAAASAAASAPSASAAASAAAPAAASAAASAPSAASSAASPAAPSAPPAAASPAAPSAPPAAASPAAPAPASPAAPAPSAPAAAHPIPDSSPLLQFGGQVRQRYLYTDDAQQTEAHLEIREDGTVGGAADQSPESLLQLKALKPGVIQILGVKTSRFLCQRPDGALYGSLHFDPEACSFRERLLEDGYNVYQSEAHGLPLHLPGNKSPHRDPAPRGPARFLPLPGLPPAPPEPPGILAPQPPDVGSSDPLSMVGGSQGRSPSYES
# modifications: dimer; side chain of Example 8.3
# B4: Compound 10.1: PAS-FGF21 dimer: PAS15FGF21 (SEQ ID NO: 13) modified by the side chain of Example 8.3 (conjugate)
# chain: SPCASPAAPAPASPAAHPIPDSSPLLQFGGQVRQRYLYTDDAQQTEAHLEIREDGTVGGAADQSPESLLQLKALKPGVIQILGVKTSRFLCQRPDGALYGSLHFDPEACSFRERLLEDGYNVYQSEAHGLPLHLPGNKSPHRDPAPRGPARFLPLPGLPPAPPEPPGILAPQPPDVGSSDPLSMVGGSQGRSPSYES
# modifications: dimer; side chain of Example 8.3
# B5: Compound 10.2: PAS-FGF21 dimer: PAS30FGF21 (SEQ ID NO: 14) modified by the side chain of Example 8.3 (conjugate)
# chain: SPCASPAAPAPASPAAPAPSAPAAASAAAPAHPIPDSSPLLQFGGQVRQRYLYTDDAQQTEAHLEIREDGTVGGAADQSPESLLQLKALKPGVIQILGVKTSRFLCQRPDGALYGSLHFDPEACSFRERLLEDGYNVYQSEAHGLPLHLPGNKSPHRDPAPRGPARFLPLPGLPPAPPEPPGILAPQPPDVGSSDPLSMVGGSQGRSPSYES
# modifications: dimer; side chain of Example 8.3
# B6: Compound 10.3: PAS-FGF21 dimer: PAS50FGF21 (SEQ ID NO: 15) modified by the side chain of Example 8.3 (conjugate)
# chain: SPCASPAAPAPASPAAPAPSAPAAASAAAPAAASAAASAPSAASAAASPAAHPIPDSSPLLQFGGQVRQRYLYTDDAQQTEAHLEIREDGTVGGAADQSPESLLQLKALKPGVIQILGVKTSRFLCQRPDGALYGSLHFDPEACSFRERLLEDGYNVYQSEAHGLPLHLPGNKSPHRDPAPRGPARFLPLPGLPPAPPEPPGILAPQPPDVGSSDPLSMVGGSQGRSPSYES
# modifications: dimer; side chain of Example 8.3
# Biological target: T1, FGFR1c and the cofactor β-Klotho (Homo sapiens, UniProt P11362+Q86Z14)
# T1 construct: host or cells: iLite FGF21 assay ready cells (genetically engineered reporter gene cell line)
# T1 sequence (P11362 22-822): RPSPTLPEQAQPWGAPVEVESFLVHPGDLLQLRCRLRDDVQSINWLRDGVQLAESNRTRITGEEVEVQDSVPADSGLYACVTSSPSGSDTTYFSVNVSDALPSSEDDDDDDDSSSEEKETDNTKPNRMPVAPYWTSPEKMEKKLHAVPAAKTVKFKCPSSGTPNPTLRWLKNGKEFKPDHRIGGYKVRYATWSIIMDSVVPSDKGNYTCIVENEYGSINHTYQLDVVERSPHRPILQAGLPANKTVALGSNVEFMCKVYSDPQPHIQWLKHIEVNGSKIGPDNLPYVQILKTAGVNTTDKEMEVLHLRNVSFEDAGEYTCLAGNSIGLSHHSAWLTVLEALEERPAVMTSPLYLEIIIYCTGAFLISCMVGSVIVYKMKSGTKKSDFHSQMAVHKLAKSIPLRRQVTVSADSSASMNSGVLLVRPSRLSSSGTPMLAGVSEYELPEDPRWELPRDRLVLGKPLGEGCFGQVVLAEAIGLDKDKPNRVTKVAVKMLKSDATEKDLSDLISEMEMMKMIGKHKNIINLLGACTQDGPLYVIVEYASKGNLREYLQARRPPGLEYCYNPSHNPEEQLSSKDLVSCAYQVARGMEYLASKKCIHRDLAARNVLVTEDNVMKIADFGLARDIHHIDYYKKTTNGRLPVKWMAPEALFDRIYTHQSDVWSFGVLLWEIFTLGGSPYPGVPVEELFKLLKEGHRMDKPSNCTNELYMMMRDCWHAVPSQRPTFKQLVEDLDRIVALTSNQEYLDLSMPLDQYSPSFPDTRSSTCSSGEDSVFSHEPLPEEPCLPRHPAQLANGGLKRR
# T1 sequence (Q86Z14 whole entry): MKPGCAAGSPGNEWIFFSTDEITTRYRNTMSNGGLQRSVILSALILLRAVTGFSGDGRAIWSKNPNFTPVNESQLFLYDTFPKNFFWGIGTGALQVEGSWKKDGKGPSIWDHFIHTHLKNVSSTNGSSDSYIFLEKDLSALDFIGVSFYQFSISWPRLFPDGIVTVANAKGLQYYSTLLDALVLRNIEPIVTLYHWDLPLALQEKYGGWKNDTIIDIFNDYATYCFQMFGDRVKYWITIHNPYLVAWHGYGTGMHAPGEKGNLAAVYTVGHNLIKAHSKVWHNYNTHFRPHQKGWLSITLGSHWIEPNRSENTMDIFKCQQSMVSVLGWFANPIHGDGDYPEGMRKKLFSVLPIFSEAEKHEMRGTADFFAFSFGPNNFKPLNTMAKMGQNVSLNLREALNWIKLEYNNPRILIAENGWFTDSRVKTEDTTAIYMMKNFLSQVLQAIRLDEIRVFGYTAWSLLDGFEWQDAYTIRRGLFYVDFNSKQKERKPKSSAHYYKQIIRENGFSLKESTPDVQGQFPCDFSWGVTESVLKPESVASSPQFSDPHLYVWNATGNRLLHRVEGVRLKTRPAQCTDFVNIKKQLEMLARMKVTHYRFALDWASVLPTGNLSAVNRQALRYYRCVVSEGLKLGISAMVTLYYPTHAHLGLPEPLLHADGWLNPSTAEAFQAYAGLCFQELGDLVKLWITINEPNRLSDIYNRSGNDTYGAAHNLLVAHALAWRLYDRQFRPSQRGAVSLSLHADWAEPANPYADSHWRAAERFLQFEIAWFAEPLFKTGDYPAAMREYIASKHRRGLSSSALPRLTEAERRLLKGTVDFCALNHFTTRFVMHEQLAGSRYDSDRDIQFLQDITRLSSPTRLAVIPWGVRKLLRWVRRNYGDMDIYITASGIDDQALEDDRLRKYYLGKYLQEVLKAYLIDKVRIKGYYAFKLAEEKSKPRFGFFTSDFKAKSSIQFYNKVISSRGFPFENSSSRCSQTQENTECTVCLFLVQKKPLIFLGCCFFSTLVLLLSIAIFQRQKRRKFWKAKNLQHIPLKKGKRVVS
# Experiment: dual-luciferase reporter gene assay in iLite FGF21 assay ready cells
# Assay type: cell-based
# Settings: Example 6, four-parameter fitting
# Description: iLite FGF21 assay ready cells (purchased from SAVR) is a genetically engineered reporter gene cell line that responds to signals downstream to FGF21 agonism through the expression of firefly luciferase. The receptor FGFR1c and the cofactor β-Klotho were co-overexpressed on the surface of iLite FGF21 assay ready cells and have undergone genetic optimization to enhance sensitivity, such that FGF21 will cause an increase in luciferase expression in a dose-response manner. The luciferase activity detection kit was purchased from Promega (catalog number #E2980).
# iLite FGF21 assay ready cells were cultured adherently in basal medium (DMEM Gluta Max, purchased from Gibco) containing 10% fetal bovine serum (FBS, purchased from Gibco) and 1% penicillin/streptomycin (purchased from Gibco). For the activity determination experiment, […] cells per well and test samples such as FGF21 mutant proteins and FGF21 conjugate molecules modified with albumin-binding agent were added to all-white 96-well culture plates (purchased from Corning), and the chemiluminescence values were detected in a microplate reader according to the instructions of the luciferase activity detection kit. Finally, the half-maximal effective concentration (EC50) values of the tested samples were obtained by means of four-parameter fitting.
row,Molecule,EC50
1,B1,240 pM

# Same assay, conditions: Example 11, four-parameter fitting
row,Molecule,EC50
1,B2,130 pM
2,B3,150 pM
3,B4,70 pM
4,B5,40 pM
5,B6,20 pM
